Drawing on US20200308292A1, this text covers EC50 and reduction in receptor binding affinity for two substances.

For assay [1], the target named is human insulin receptor extracellular domain (HIR ECD) (human) (UniProt P06213). The assay can be described thus: ELISA, HIR ECD plated, biotinylated anti-human IgG detection.
For assay [2] the target is unchanged. As to the kind of experiment: ELISA, HIR ECD plated; against the HIR Ab as reference.

Broadly, the EC50 is the concentration giving half of the maximal effect. A lower EC50 goes with greater potency. In turn, “HIR Ab-GUSB fusion protein (GUSB fused to the carboxyl terminus of the HIR Ab heavy chain) (from UniProt P08236 23-633) (antibody)” came in with a concentration for a half-maximal effect (EC50) in assay [1] of 0.81 nM.

Substance “GUSB-HIR Ab fusion protein (GUSB fused to the amino terminus of the HIR Ab heavy chain) (from UniProt P08236 23-633) (antibody)” gave an EC50 in assay [1] of 4.8 nM. This substance also came in with a reduction in receptor binding affinity in assay [2] of 95%.
